The results in this text go back to article PMC8546227.

This experiment addresses Hoc^-Soc^- T4 phage capsid (bacteriophage T4) (UniProt P19896). The experiment can be described thus: co-sedimentation.
Sequence of UniProt P19896 (P19896 whole entry, looked up): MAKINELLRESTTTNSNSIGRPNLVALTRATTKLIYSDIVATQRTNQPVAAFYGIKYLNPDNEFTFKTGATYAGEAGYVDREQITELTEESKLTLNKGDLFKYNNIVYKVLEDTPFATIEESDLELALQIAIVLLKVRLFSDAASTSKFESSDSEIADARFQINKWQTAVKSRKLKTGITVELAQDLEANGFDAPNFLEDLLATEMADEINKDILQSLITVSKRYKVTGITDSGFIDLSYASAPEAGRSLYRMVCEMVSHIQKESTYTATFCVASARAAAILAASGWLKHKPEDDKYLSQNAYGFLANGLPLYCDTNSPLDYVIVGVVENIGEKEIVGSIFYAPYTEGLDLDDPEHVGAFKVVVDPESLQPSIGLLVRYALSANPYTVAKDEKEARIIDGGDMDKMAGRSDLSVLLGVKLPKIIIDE

Substance “Soc-3M2e fusion protein (RB69 Soc with three tandem copies of M2e from human, swine and avian influe” displayed a Kd of 0.305 µM.
